The source of these data is patent publication US20260022175A1 (Chugai, published 2026).

Positions count from the first letter of the chain named. In names and notes the source's numbering stands.

For assay [1], the target named is T1, human FcRn (human, UniProt P55899 24-290; P61769 21-119).
T1 construct: Prepared by the method of WO 2010/107110; also called hFcRn
Description: SPR; KD of 04H1656-G1m/04L1610-lam1 divided by KD of variant. For orientation: In SPR one partner is held on a chip, and binding of the other changes the refractive index at the surface.

Assay [2] addresses T2, human FcγRIIa R allotype extracellular domain with C-terminal His-tag (human, UniProt P12318 34-217).
T2 construct: extracellular domain; also called hFcγR IIa R
T2 sequence (looked up): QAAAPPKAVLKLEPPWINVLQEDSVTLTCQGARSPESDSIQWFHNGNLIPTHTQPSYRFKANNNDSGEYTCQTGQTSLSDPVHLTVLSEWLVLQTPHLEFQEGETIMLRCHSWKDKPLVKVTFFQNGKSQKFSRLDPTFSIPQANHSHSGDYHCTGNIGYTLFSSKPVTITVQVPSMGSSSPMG
Described as above.

The target of assay [3] is T3, human FcγRIIIa V allotype extracellular domain with C-terminal His-tag (human, UniProt P08637 17-208).
T3 construct: extracellular domain; also called hFcγR IIIa V
T3 sequence (P08637 17-208 F176V): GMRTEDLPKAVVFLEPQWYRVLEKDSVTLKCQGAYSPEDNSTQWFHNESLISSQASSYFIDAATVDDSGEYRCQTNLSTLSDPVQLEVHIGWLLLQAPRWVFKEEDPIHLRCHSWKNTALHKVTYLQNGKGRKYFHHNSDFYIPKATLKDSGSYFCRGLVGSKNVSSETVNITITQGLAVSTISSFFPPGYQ
The description is as above.

Assay [4] has as its target T4, human FcγRIIIa F allotype extracellular domain with C-terminal His-tag (human, UniProt P08637 17-208).
T4 construct: extracellular domain; also called hFcγR IIIa F
The description is as above.

Assay [5] concerns the target T5, human FcγRIIa H allotype extracellular domain with C-terminal His-tag (human, UniProt P12318 34-217).
T5 construct: extracellular domain; also called hFcγR IIa H
T5 sequence (looked up): T2 sequence (looked up) with R134H
The assay is described as above.

For assay [6], the target named is T6, human FcγRIa extracellular domain with C-terminal His-tag (human, UniProt P12314 16-292).
T6 construct: extracellular domain; also called hFcγR Ia; hFcγRIa
T6 sequence (P12314 16-292): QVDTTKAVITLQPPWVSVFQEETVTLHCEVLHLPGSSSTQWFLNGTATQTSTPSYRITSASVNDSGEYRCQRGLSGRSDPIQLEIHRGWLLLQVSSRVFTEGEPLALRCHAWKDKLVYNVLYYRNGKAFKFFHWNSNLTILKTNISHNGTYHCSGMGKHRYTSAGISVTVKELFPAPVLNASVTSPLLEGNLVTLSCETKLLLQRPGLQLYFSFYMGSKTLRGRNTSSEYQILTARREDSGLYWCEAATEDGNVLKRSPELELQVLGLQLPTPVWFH
The description is as above.

The target of assay [7] is T7, human FcγRIIb extracellular domain with C-terminal His-tag (human, UniProt P31994 43-217).
T7 construct: extracellular domain; also called hFcγR IIb
T7 sequence (looked up): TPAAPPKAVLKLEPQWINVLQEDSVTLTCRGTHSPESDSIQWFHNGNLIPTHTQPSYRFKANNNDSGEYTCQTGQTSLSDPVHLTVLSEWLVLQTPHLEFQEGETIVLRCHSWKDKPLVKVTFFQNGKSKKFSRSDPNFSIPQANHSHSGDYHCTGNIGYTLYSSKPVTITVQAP
Description: SPR; FcγRIIb bound amount per unit captured Ab.
Description: (§1) The interaction between the generated antibodies and human FcγRs was analyzed by the following method using Biacore T200. 50 mM Na-Phosphate, 150 mM NaCl, 0.05% Tween20 (pH 7.4) was used as the running buffer, and the assay was performed at 25° C. For the sensor chips, Series S SA (GE Healthcare) chips onto which CaptureSelect Human Fab-lambda Kinetics Biotin Conjugate (Thermo Fisher Scientific) was immobilized were used. The antibodies of interest were captured onto these chips and each FcγR diluted in the running buffer was allowed to interact with them. Chips were regenerated with 10 mM Glycine-HCl (pH 1.5) and 25 mM NaOH, and assay was performed by repeatedly capturing antibodies. The dissociation constants KD (mol/L) for FcγRs of each antibody were calculated using Biacore T200 Evaluation Software 2.0, using the 1:1 Langmuir binding model for FcγRIa and FcγRIIIa and the steady state affinity model for FcγRIIa. For FcγRIIb, the binding amount of FcγRIIb per unit amount of antibody was calculated by correcting the binding amount of FcγRIIb obtained from the sensorgram obtained by the measurement with the amount of antibody captured onto the chip surface.

The target in assay [8] is T2, human FcγRIIa R allotype extracellular …. The assay can be described thus: SPR Biacore T200, captured Ab, pH 7.4.
Description: as §1
In assay [9] the target is T3, human FcγRIIIa V allotype extracellular …. Description: SPR Biacore T200, captured Ab, pH 7.4.
Description: as §1
The target of assay [10] is T4, human FcγRIIIa F allotype extracellular …. Description: SPR Biacore T200, captured Ab, pH 7.4.
Description: as §1
The target of assay [11] is T5, human FcγRIIa H allotype extracellular …. The assay can be described thus: SPR Biacore T200, captured Ab, pH 7.4.
Description: as §1
For assay [12], the target named is T6, human FcγRIa extracellular domain with …. Description: SPR Biacore T200, captured Ab, pH 7.4.
Description: as §1
In assay [13] the target is T7, human FcγRIIb extracellular domain with …. The assay can be described thus: SPR; binding amount divided by that of 04H1656-G1m/04L1610-lam1.
The target of assay [14] is T1, human FcRn. Description: SPR Biacore T200, captured Ab, pH 6.0, steady state.
Description: The interaction between the generated antibodies and human FcRn was analyzed by the following method using Biacore T200. 50 mM Na-Phosphate, 150 mM NaCl, 0.05% Tween20 (pH 6.0) was used as the running buffer, and the assay was performed at 25° C. For the sensor chip, Series S SA (GE Healthcare) chips onto which CaptureSelect Human Fab-lambda Kinetics Biotin Conjugate (Thermo Fisher Scientific) was immobilized were used. The antibodies of interest were captured onto these chips and FcRn diluted in the running buffer was allowed to interact with them. Chips were regenerated with 10 mM Glycine-HCl (pH 1.5) and 25 mM NaOH, and assay was performed by repeatedly capturing antibodies. The dissociation constant for FcRn of each antibody was calculated using the steady state model, using Biacore T200 Evaluation Software 2.0.

T1 sequence (P55899 24-290 limits assumed, chain 1 of 2): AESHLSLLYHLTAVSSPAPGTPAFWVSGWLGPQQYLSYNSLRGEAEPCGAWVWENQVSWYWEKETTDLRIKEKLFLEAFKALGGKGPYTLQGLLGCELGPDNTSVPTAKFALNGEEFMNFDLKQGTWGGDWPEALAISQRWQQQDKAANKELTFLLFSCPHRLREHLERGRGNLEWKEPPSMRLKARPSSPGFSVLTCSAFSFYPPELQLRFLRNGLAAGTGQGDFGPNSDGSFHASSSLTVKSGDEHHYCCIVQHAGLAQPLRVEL
T1 sequence (P61769 21-119 limits assumed, chain 2 of 2): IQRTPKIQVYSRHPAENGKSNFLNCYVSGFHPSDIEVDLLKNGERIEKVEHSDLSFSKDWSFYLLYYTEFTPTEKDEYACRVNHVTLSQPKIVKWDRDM
T4 sequence (P08637 17-208): as the sequence (P08637 17-208 F176V) above, with V160F counted along it

B1: 04H1654-KT462/04L1610-lam1//04H1656-HT441/04L1610-lam1 (antibody, human IgG1, lambda)
heavy 1: QVQLVESGGGVVQPGGSLRLSCAASGFTFSSKTMNWVRQAPGKGLEWVSSISTQSHYIYYARSVRGRFTISRDNAKNSLYLQMNSLRAEDTAVYYCARYGKREDMLWVFDYWGQGTLVTVSSASTKGPSVFPLAPSSKSTSGGTAALGCLVKDYFPEPVTVSWNSGALTSGVHTFPAVLQSSGLYSLSSVVTVPSSSLGTQTYICNVNHKPSNTKVDKRVEPKSCDKTHTCPPCPAPEFQWGPMVFLFPPKPKDVLMISRTPEVTCVVVDVSDEEPEVKFNWYVDGVEVHNAKTKPREEQYNATYRVVSVLPVLHQDWLNGKEYKCKVSNDALPAPIEKTISKAKGQPREPQVYTLPPSRKEMTKNQVSLTCLVKGFYPSDIAVEWESNGQPENNYKTTPPVLDSDGSFFLYSKLTVDKSRWQQGNVFSCSVMHEALHNHYTQKSLSLSP
heavy 2: B1 heavy 1 with R62E, K101A, F239L, Q240L, W241A, M244S, D273H, K339E, K361E, K444E
light: QSALTQPPSASGSPGQSVTISCEGPSTGVGDYNWVHWYQQHPGKAPKLMIYFTSKKPSGVPDRFSGSKSGNTASLTVSGLQAEDEADYYCQTYAAPLGPMFGGGTKLTVLGQPKAAPSVTLFPPSSEELQANKATLVCLISDFYPGAVTVAWKADSSPVKAGVETTTPSKQSNNKYAASSYLSLTPEQWKSHRSYSCQVTHEGSTVEKTVAPTECS
notes: Heterodimerized antibody
The Kd is the constant that tells how readily two partners part at equilibrium. A high value points to lower affinity. As for B1, in the assay with human FcRn [1], the “Relative value to KD between G1m and hFcRn” value worked out at 0.9. Besides, the “Relative value to KD between G1m and hFcγRs” value amounted to 9 in [2]; 218 in assay [3]; 58.1 in assay [4]; 13.5 in assay [5]; 0.8 in assay [6]. The Binding amount in assay [7] turned out to be 0.014. The Kd in assay [8] was 180 nM; in [9] it was 4.4 nM; in assay [10] it was 17 nM; in [11] it was 99 nM; in [12], 0.12 nM; in the assay with human FcRn [14], 2000 nM. Besides, the Relative binding amount in assay [13] stood at 1.7.

B2: 04H1654-KT473/04L1610-lam1//04H1656-HT451/04L1610-lam1 (antibody)
heavy 1: B1 heavy 1 with N439A, Y441T, Q443R, S445E
heavy 2: QVQLVESGGGVVQPGGSLRLSCAASGFTFSSKTMNWVRQAPGKGLEWVSSISTQSHYIYYAESVRGRFTISRDNAKNSLYLQMNSLRAEDTAVYYCARYGAREDMLWVFDYWGQGTLVTVSSASTKGPSVFPLAPSSKSTSGGTAALGCLVKDYFPEPVTVSWNSGALTSGVHTFPAVLQSSGLYSLSSVVTVPSSSLGTQTYICNVNHKPSNTKVDKRVEPKSCDKTHTCPPCPAPELLAGPSVFLFPPKPKDVLMISRTPEVTCVVVDVSHEEPEVKFNWYVDGVEVHNAKTKPREEQYNATYRVVSVLPVLHQDWLNGKEYKCKVSNDALPAPIEETISKAKGQPREPQVYTLPPSREEMTKNQVSLTCLVKGFYPSDIAVEWESNGQPENNYKTTPPVLDSDGSFFLYSKLTVDKSRWQQGNVFSCSVMHEALHAHTTREELSLSP
light: B1 light
notes: Heterodimerized antibody with N434A/Y436T/Q438R/S440E; also called SW1610-ART5+ACT1
Take B2: in the assay with human FcRn [1], the “Relative value to KD between G1m and hFcRn” value worked out at 3.2. The “Relative value to KD between G1m and hFcγRs” value in assay [2] was 8.9; in assay [3], 190; in [4], 50.8; in assay [5], 14.5; in [6] it was 0.6. In addition, the Binding amount in [7] turned out to be 0.012. Moreover, the Kd in [8] came to 180 nM; in assay [9], 5.1 nM; in [10] it was 20 nM; in assay [11], 92 nM; in assay [12] it was 0.14 nM; in the assay with human FcRn [14], 540 nM. This molecule showed a Relative binding amount in assay [13] of 1.5.
